Here are results for three substances from patent US20180118848A1.

This experiment addresses human MUC16 (mucin 16) (human). As to the kind of experiment: MSD ECL cell binding, RLU ratio OVCAR-3 vs SK-OV-3, […] Ab; NS = ratio <2.5-fold.
For the substance hIgG1 Isotype Control Antibody, the Ratio anti-MUC16 Binding OVCAR-3/SK-OV-3 was below 2.5.

Take mIgG2a Isotype Control Antibody: the Ratio anti-MUC16 Binding OVCAR-3/SK-OV-3 was below 2.5.

Turning to mIgG1 Isotype Control Antibody, the Ratio anti-MUC16 Binding OVCAR-3/SK-OV-3 is below 2.5.
